Source: patent US20230340419A1, “METHODS FOR GENERATION OF MOUSE AND HUMAN URETERIC BUD ORGANOIDS AND COLLECTING DUCT ORGANOIDS” (University of Southern California, priority 2020, published 2023)

What was measured:
Assay type in all cases: cell-based, mouse
[1] = test system: Wnt11-RFP UB organoid; experiment: Stage III 1st round screening of growth factors and small molecules for UB organoid culture condition; settings: reagent added to FGF9 + C3 + TTNPB + GDNF; compared to that control group
Excerpt: We employed this Wnt11-RFP reporter system as a readout to screen for a culture condition that maintained the progenitor identity of UPCs in vitro. T-shaped UBs were manually isolated from E11.5 kidneys of Wnt11-RFP mice, and immediately embedded into Matrigel to set up a 3D culture platform that supported epithelial branching. In this 3D culture format, built on previous efforts towards the ex vivo culture of UB, hundreds of different combinations of growth factors and small molecules were tested (see also the Materials and Techniques section below for details under subheading “Screening for optimal UB culture condition”).
We systematically screened the optimal UB culture condition in four different stages (Stages I-IV).
In Stage III, based on the optimized recipe consisting of FGF9, TTNPB, CHIR99021 (3 μM) and GDNF, we preformed our 1st round of screening of growth factors and small molecules targeting major developmental pathways (e.g. TGF-β, BMP, Wnt, FGF, Hedgehog and Notch) and others. The branching morphogenesis, growth rate and Wnt11-RFP were recorded as readouts (Table 1). […] Representative images were taken at least for LDN193189, A83-01, and R-Spondin 1. These individual hits were then subjected to a 2nd round of screening to test their effects in various combinations, eventually leading to the identification of the optimal UB progenitor culture medium UBCM consisting of FGF9, TTNPB, CHIR99021 (3 μM), GDNF, LDN193189, A83-01, R-Spondin1, JAKI and SB202190.

[2] = test system: Wnt11-RFP UB organoid; experiment: Withdrawal of individual components from UBCM (Stage IV validation); settings: component withdrawn from UBCM
Excerpt: To determine whether UBCM culture conditions enabled clonal growth from a single UPC, dissociated E11.5 UBs were embedded at clonal density in Matrigel and cultured in UBCM medium. Around 30% of the single cells self-organized into E11.5 UB-like budding structures within 5 days, though a smaller percentage (3-5%) maintained Wnt11-RFP (FIG. 1G), an efficiency similar to clonal organoid formation for Lgr5^+ intestinal stem cells. Importantly, the clonally-derived Wnt11-RFP^+ budding structures were identical to intact E11.5 UB-derived organoids in both branching morphology and growth rate (Table 3, FIG. 1H).
Lastly, in Stage IV, we asked whether each of the components in UBCM was essential.

[3] = test system: UB organoids; experiment: 2nd round of CD differentiation condition screening (qRT-PCR of Aqp2 and Foxi1); settings: qRT-PCR, 7 days, under hBI+FGF9+Y27632 condition
Description: The functions of the mature renal CD system are carried out by two major cell populations that are intermingled throughout the entire CD network. The more abundant principal cells (PCs) concentrate the urine and regulate Na^+/K^+ homeostasis via water and Na^+/K^+ transporters. The less abundant α- and β-intercalated cells (ICs) regulate normal acid-base homeostasis via secretion of H^+ or HCO3^− into the urine. The absence of an in vitro system recapitulating PC and IC development in an appropriate 3D context, constrains physiological exploration, disease modeling and drug screening on the renal CD system. With this limitation in mind, we developed a screen to establish conditions supporting the differentiation of CD organoids, assaying expression of Aqp2 and Foxi1, definitive markers for PC and IC lineages, respectively, by quantitative reverse transcription PCR (qRT-PCR), following 7 days of culture under variable but defined culture conditions (FIG. 2A).
Agonists or antagonists targeting major developmental pathways (e.g. TGF-β, BMP, Wnt, FGF, Hedgehog and Notch) were tested, together with hormonal inputs known to regulate PC or IC activity (aldosterone and vasopressin).

B1: FGF10: member of the FGF family (protein, UniProt O15520 38-208, looked up)
Fibroblast growth factor 10: QALGQDMVSPEATNSSSSSFSSPSSAGRHVRSYNHLQGDVRWRKLFSFTKYFLKIEKNGKVSGTKKENCPYSILEITSVEIGVVAVKAINSNYYLAMNKKGKLYGSKEFNNDCKLKERIEENGYNTYASFNWQHNGRQMYVALNGKGAPRRGQKTRRKNTSAHFLPMVVHS
[1]
  Organoid growth: Slower
  Wnt11-RFP: Worse

B2: R-Spondin 1: UBCM component (protein, UniProt Q2MKA7 21-263, looked up)
R-spondin-1: SRGIKGKRQRRISAEGSQACAKGCELCSEVNGCLKCSPKLFILLERNDIRQVGVCLPSCPPGYFDARNPDMNKCIKCKIEHCEACFSHNFCTKCKEGLYLHKGRCYPACPEGSSAANGTMECSSPAQCEMSEWSPWGPCSKKQQLCGFRRGSEERTRRVLHAPVGDHAACSDTKETRRCTVRRVPCPEGQKRRKGGQGRRENANRNLARKESKEAGAGSRRRKGQQQQQQQGTVGPLTSAGPA
[1]
  Wnt11-RFP: Better

B3: FGF4: member of the FGF family (protein, UniProt P08620 31-206, looked up)
Fibroblast growth factor 4: APTAPNGTLEAELERRWESLVALSLARLPVAAQPKEAAVQSGAGDYLLGIKRLRRLYCNVGIGFHLQALPDGRIGGAHADTRDSLLELSPVERGVVSIFGVASRFFVAMSSKGKLYGSPFFTDECTFKEILLPNNYNAYESYKYPGMFIALSKNGKTKKGNRVSPTMKVTHFLPRL
[1]
  Wnt11-RFP: Worse

B4: GDNF: glial cell-derived neurotrophic factor (protein, UniProt P39905 78-211, looked up)
Glial cell line-derived …: SPDKQMAVLPRRERNRQAAAANPENSRGKGRRGQRGKNRGCVLTAIHLNVTDLGLGYETKEELIFRYCSGSCDAAETTYDKILKNLSRNRRLVSDKVGQACCRPIAFDDDLSFLDDNLVYHILRKHSAKRCGCI
[2]
  Effect of withdrawal of the component from UBCM on organoid growth: growth arrest

B5: BMP7: growth factor tested in screening (protein, UniProt P18075 293-431, looked up)
Bone morphogenetic protein 7: STGSKQRSQNRSKTPKNQEALRMANVAENSSSDQRQACKKHELYVSFRDLGWQDWIIAPEGYAAYYCEGECAFPLNSYMNATNHAIVQTLVHFINPETVPKPCCAPTQLNAISVLYFDDSSNVILKKYRNMVVRACGCH
[1]
  Wnt11-RFP: Better
[3]
  Aqp2 expression: dramatically increased
  Foxi1 expression: dramatically increased

B6: FGF8: member of the FGF family (protein, UniProt P55075 23-233, looked up)
Fibroblast growth factor 8: QEGPGRGPALGRELASLFRAGREPQGVSQQHVREQSLVTDQLSRRLIRTYQLYSRTSGKHVQVLANKRINAMAEDGDPFAKLIVETDTFGSRVRVRGAETGLYICMNKKGKLIAKSNGKGKDCVFTEIVLENNYTALQNAKYEGWYMAFTRKGRPRKGSKTRQHQREVHFMKRLPRGHHTTEQSLRFEFLNYPPFTRSLRGSQRTWAPEPR
[1]
  Wnt11-RFP: Worse
